Data published in paper PMC9606073 (Immunity, 2022).

Target: SARS-CoV-2 Omicron BA.4/BA.5 RBD (SARS-CoV-2 Omicron BA.4/BA.5, strain)
Experiment: SPR
Details: both partners purified

B1: C118 IgG (antibody, V domains shown)
VH: QVQLVESGGGVVQPGRSLRLSCAASGFTFSNYAMHWVRQAPGKGLEWVAVISYDGSNKYYADSVKGRFTISRDNSKNTLYLQMNSLRAEDTAIYYCASGYTGYDYFVRGDYYGLDVWGQGTTVTVSS
VL: QPVLTQSPSASASLGASVKLTCTLSSGHSSYAIAWHQQQPEKGPRYLMKLNTDGSHSKGDGIPDRFSGSSSGAERYLTISSLQSEDEADYYCQTWGTGILVFGGGTKLTVL
notes: copies: 2 + 2
B1 gave a Kd of 0.028 µM, a koff of 0.0039 s⁻¹ and a kon of 140000 M⁻¹ s⁻¹.

B2: M8a-6 IgG (antibody, V domains shown)
VH: QVQLQQPGTELVMPGASVKLSCKTSGYTFTHYWMHWVKQRPGEGLEWIGEIAPSDNYVKYNQKFKGKSTLSVDRSSSTAYMQLSSLTSEDSAVYFCARPDNSGYPVYFDYWGQGTSLTVSS
VL: DIVMTQSQKFMSTSLGDRVSISCKASQDVGTTVAWYQQKPGQSPKLLIYWASTRHTGVPDRFTGTGSGTDYTLTISSVAAEDLALYYCQQHYNTPYTFGGGTKLEIE
notes: copies: 2 + 2
B2 showed a Kd of 0.29 µM.

B3: M8a-3 IgG (antibody, V domains shown)
VH: QVQLQQPGAELVLPGASVKLSCKASGYTFTNYWMHWVKQRPGHGLEWIGEIDPFDTYIKINQKFKGKSTLTVDTSSSTAYMQLSSLTSEDSAVYYCARPDSSGYPVYFDYWGQGTTLTVSS
VL: DIVMTQSHKFMSTSVGDRVSITCKASQDVGTYIAWYQQKPGQSPKLLIYWASTRHTGVPDRFTGSGSGTNYTLTISSVQAEDLALYHCQQHYSTPYTFGGGTKLEIK
notes: copies: 2 + 2
In the case of B3, the Kd is reported as 0.0022 µM, the koff is reported as 0.00045 s⁻¹ and the kon is reported as 210000 M⁻¹ s⁻¹.
